From patent publication US20260250421A1

Biological target: His-tagged dog TROP2 protein (dog)
Test: SPR Biacore 8K, Ab on Protein A chip

Row | Kd [nM] | koff [s⁻¹] | kon [M⁻¹ s⁻¹] | Binder
1 | 27.2 | 0.000812 | 29900 | DS-1062 analog-LALA (antibody, V domains shown) VH: QVQLVQSGAEVKKPGASVKVSCKASGYTFTTAGMQWVRQAPGQGLEWMGWINTHSGVPKYAEDFKGRVTISADTSTSTAYLQLSSLKSEDTAVYYCARSGFGSSYWYFDVWGQGTLVTVSS VL: DIQMTQSPSSLSASVGDRVTITCKASQDVSTAVAWYQQKPGKAPKLLIYSASYRYTGVPSRFSGSGSGTDFTLTISSLQPEDFAVYYCQQHYITPLTFGQGTKLEIKR
2 | 42 | 0.00858 | 204000 | Sacituzumab analog (antibody, V domains shown) VH: QVQLQQSGSELKKPGASVKVSCKASGYTFTNYGMNWVKQAPGQGLKWMGWINTYTGEPTYTDDFKGRFAFSLDTSVSTAYLQISSLKADDTAVYFCARGGFGSSYWYFDVWGQGSLVTVSS VL: DIQLTQSPSSLSASVGDRVSITCKASQDVSIAVAWYQQKPGKAPKLLIYSASYRYTGVPDRFSGSGSGTDFTLTISSLQPEDFAVYYCQQHYITPLTFGAGTKVEIKR
